Reference: publication doi:10.1101/508887 (bioRxiv, 2018)

Target: T1, KIF1C-SNAPf-3XFLAG, full-length KIF1C (human, UniProt O43896 1-1103, TMR via the SNAP-tag (in the TIRF assays))
T1 sequence: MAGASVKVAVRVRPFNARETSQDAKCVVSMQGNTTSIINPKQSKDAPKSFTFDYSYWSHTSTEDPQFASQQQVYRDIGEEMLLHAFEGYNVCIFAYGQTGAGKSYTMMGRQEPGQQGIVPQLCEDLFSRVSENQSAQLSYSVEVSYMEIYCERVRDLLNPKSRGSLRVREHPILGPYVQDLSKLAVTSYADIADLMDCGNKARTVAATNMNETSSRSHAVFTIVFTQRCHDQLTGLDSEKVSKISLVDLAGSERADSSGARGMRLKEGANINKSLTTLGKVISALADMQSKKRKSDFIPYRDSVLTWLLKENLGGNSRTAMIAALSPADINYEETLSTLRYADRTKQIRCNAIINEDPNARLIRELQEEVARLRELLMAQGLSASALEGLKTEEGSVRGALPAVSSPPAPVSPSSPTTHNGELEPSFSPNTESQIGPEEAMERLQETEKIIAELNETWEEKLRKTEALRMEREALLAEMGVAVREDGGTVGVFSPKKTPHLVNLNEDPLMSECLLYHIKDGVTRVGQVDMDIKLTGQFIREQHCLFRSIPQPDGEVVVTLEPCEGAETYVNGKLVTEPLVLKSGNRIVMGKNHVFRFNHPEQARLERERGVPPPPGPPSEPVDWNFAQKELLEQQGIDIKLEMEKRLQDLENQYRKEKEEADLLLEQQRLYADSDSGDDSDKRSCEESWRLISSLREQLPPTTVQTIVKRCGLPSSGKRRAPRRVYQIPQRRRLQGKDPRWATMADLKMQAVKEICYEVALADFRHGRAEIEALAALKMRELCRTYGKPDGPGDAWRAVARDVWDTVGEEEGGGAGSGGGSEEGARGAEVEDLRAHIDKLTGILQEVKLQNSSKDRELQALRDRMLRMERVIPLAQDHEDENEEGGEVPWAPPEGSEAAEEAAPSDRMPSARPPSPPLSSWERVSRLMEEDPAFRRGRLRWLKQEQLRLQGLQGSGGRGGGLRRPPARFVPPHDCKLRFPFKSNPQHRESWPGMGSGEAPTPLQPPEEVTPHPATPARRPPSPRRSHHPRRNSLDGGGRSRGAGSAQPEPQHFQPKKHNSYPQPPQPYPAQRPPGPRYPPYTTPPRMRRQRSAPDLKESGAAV
Assay: single-molecule three-colour TIRF colocalisation on microtubules

B1: Halo-HOOK3(1-718)-3XFLAG, full-length HOOK3 (natural protein)
chain: MFSVESLERAELCESLLTWIQTFNVDAPCQTVEDLTNGVVMAQVLQKIDPAYFDENWLNRIKTEVGDNWRLKISNLKKILKGILDYNHEILGQQINDFTLPDVNLIGEHSDAAELGRMLQLILGCAVNCEQKQEYIQAIMMMEESVQHVVMTAIQELMSKESPVSAGNDAYVDLDRQLKKTTEELNEALSAKEEIAQRCHELDMQVAALQEEKSSLLAENQVLMERLNQSDSIEDPNSPAGRRHLQLQTQLEQLQEETFRLEAAKDDYRIRCEELEKEISELRQQNDELTTLADEAQSLKDEIDVLRHSSDKVSKLEGQVESYKKKLEDLGDLRRQVKLLEEKNTMYMQNTVSLEEELRKANAARSQLETYKRQVVELQNRLSEESKKADKLDFEYKRLKEKVDSLQKEKDRLRTERDSLKETIEELRCVQAQEGQLTTQGLMPLGSQESSDSLAAEIVTPEIREKLIRLQHENKMLKLNQEGSDNEKIALLQSLLDDANLRKNELETENRLVNQRLLEVQSQVEELQKSLQDQGSKAEDSVLLKKKLEEHLEKLHEANNELQKKRAIIEDLEPRFNNSSLKIEELQEALRKKEEEMKQMEERYKKYLEKAKSVIRTLDPKQNQGAAPEIQALKNQLQERDRLFHSLEKEYEKTKSQREMEEKYIVSAWYNMGMTLHKKAAEDRLASTGSGQSFLARQRQATSSRRSYPGHVQPATAR
modifications: Alexa-488 via the HaloTag (in the TIRF assays)
  binding result: binds
